In US20250009780A1, “AGENTS ENCODING CLDN6 AND CD3 BINDING ELEMENTS FOR TREATING CLDN6-POSITIVE CANCERS” (BIONTECH SE, priority 2021, published 2025):
“And” between values parts separate entries of the source, which are not always exact repeats. Equal entries are not always repeated.

Legend:
[1] = cynomolgus monkey, in vivo
CLDN9 = target: T1, CLDN9 (Homo sapiens, UniProt O95484); assay: Flow cytometric binding assay, HEK-293T-17 CLDN9 transductants; design: expressed in transfected cells; conditions: 10 μg/mL RiboMab02.1 in HEK-293T-17 supernatant
T1 sequence (O95484 1-217): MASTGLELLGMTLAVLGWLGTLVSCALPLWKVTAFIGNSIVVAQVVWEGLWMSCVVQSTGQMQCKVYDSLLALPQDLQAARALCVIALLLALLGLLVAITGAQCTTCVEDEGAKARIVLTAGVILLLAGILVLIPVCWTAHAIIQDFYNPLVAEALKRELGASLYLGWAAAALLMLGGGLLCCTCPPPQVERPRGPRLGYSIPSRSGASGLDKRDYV
From the text: (§1) Cells were first gated for singlets followed by gating for viable lymphocytes (PBMCs) or viable HEK-293T-17 cells. […] Cynomolgus monkey or human PBMCs and HEK-293T-17 transductants stably expressing luciferase (HEK-293T-17_mock), CLDN3, 4, 6 or 9 served as target cells as indicated. The dotted vertical line marks the peak position of unstained populations.

MDA-MB-231 cell line = assay: T-cell-mediated cytotoxicity assay (bioluminescence), MDA-MB-231; assay type: cell-based, human; conditions: CLDN6-negative MDA-MB-231; RiboMab02.1-containing mouse serum
Method: Human PBMCs from eight healthy donors were co-cultured with luciferase-expressing tumor cells. CLDN6-positive PA-1 (A) or OV-90 (B) cell lines were used as target cells and the CLDN6-negative MDA-MB-231 (A, B) cell line to control for target specificity. The assays were performed in a 384-well plate format with an effector-to-target-cell ratio of 20:1. Bioluminescence of viable tumor cells was measured as readout. Specific lysis percentages of tumor cell killing are presented. RiboMab02.1-containing mouse serum was serially-diluted (10-fold, 10-point; range: 5.0×10^−7 to 500 ng/mL) and added to the co-cultures, followed by incubation for (A) 24 h with PA-1 cells or (B) 48 h with OV-90 cells. Each line represents tumor cell lysis with an individual donor's PBMC sample.
Bioluminescence-based cytotoxicity assays were conducted using luciferase-expressing cell lines.
The CLDN6-positive human ovarian cancer cell lines PA-1 and OV-90 served to determine target-dependent lysis efficiency while the target-negative human breast cancer cell line MDA-MB-231 was used as negative control to confirm target-specific lysis. Human PBMCs from eight different healthy donors were used as effector cells to reflect the donor-dependent heterogeneity of human T-cell responses. […]

CLDN6 = target: T2, CLDN6 (Homo sapiens, UniProt P56747); assay: Flow cytometric binding assay, HEK-293T-17 CLDN6 transductants; conditions: 10 μg/mL RiboMab02.1 in HEK-293T-17 supernatant
T2 construct: expressed in transfected cells
T2 sequence (P56747 1-220): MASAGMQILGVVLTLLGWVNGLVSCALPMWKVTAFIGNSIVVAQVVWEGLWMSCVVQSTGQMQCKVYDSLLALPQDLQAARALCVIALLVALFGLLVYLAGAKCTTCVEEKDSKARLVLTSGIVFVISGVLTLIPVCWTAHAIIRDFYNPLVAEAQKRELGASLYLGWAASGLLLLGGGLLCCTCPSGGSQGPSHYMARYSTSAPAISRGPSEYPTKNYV
From the text: as §1

simian CD3 = target: T3, simian CD3 (Macaca fascicularis, UniProt Q95LI5); assay: Flow cytometric binding assay, cynomolgus monkey PBMCs; conditions: 10 μg/mL
T3 construct: endogenous in cells; host or cells: cynomolgus monkey PBMCs (T cells)
From the text: as §1

human PBMCs (T cells) = assay: T-cell proliferation assay (CFSE-labeled PBMCs, flow cytometry); assay type: cell-based
From the text: CFSE-labeled human PBMCs from three healthy donors were co-cultured with CLDN6-positive PA-1 and OV-90 target cells or with CLDN6-negative but control TAA-positive NUGC-4 as well as target-negative MDA-MB-231 control cells in a 12-well culture plate format. An effector-to-target-cell ratio of 10:1 was applied. In addition, PBMCs without (−) target cells were included separately. […] OKT3 antibody (anti-human CD3; black bars) served as positive control for target-independent CD3-driven T-cell proliferation. After 72 h of incubation, the percentages of proliferating T cells were analyzed by flow cytometry.
HEK-293T-17 producer cells were transfected with BNT142 or a control RiboMab-encoding RNA. Supernatants containing RiboMab02.1 or the control RiboMab (specific for an irrelevant TAA) were used as test items. Two concentrations (100 or 1 ng/mL) of RiboMab-containing supernatant were added to co-cultures of carboxyfluorescein succinimidyl ester (CFSE)-labeled human PBMCs and target-positive or -negative cells. PA-1 or OV-90 served as CLDN6-positive and MDA-MB-231 as target-negative cells. CLDN6-negative NUGC-4 cells (expressing the irrelevant TAA) as well as PBMCs in the absence of any target cells were included as further specificity controls. PBMCs from three healthy donors were compared in this assay. After 72 h of incubation, T cells were analyzed by flow cytometry to determine target-dependent proliferation.

[2] = Single-dose PK study of BNT142 in cynomolgus monkeys
human CD3 = target: T4, human CD3 (Homo sapiens, UniProt P07766); assay: Flow cytometric binding assay, human PBMCs; conditions: 10 μg/mL
T4 construct: endogenous in cells; host or cells: human PBMCs (T cells)
From the text: as §1

[3] = 0.050 mg/kg, individual animals

T3 sequence (Q95LI5 22-198): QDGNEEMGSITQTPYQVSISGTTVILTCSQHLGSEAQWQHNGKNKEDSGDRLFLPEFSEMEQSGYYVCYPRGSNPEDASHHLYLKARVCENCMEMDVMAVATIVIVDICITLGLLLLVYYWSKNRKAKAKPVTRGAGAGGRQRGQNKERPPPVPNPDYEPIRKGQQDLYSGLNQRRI
T3 sequence (Q95LI8 22-171 partner): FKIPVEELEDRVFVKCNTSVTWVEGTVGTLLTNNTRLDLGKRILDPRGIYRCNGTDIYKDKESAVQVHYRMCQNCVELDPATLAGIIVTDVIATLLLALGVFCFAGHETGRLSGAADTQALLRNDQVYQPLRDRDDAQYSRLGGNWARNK
T3 sequence (Q95LI7 23-181 partner): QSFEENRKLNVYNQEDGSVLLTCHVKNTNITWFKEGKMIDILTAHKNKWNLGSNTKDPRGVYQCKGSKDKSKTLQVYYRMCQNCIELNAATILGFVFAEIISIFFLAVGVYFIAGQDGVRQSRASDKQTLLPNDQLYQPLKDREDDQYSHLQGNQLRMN
T4 sequence (P07766 23-207): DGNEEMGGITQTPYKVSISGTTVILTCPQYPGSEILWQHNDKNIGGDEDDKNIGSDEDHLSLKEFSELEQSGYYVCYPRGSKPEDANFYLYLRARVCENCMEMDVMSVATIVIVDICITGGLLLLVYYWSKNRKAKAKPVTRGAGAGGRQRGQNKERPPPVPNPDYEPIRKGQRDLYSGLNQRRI
T4 sequence (P04234 22-171 partner): as the sequence (Q95LI8 22-171 partner) above, with V5I, K15N, V20I, T32S, N33D, N34I, A64T, N74S, L83V, R141H counted along it
T4 sequence (P09693 23-182 partner): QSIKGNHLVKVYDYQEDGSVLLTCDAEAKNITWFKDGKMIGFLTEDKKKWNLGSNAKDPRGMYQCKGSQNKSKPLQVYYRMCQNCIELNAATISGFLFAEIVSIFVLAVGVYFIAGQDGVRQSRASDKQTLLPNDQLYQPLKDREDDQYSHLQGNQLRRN
T4 sequence (P20963 22-164 partner): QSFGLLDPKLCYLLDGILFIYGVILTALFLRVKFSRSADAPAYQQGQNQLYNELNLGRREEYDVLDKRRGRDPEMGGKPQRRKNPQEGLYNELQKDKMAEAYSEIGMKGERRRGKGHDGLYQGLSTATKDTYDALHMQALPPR

In the case of “RiboMab02.1: Fab-(scFv)2-based bispecific antibody (tribody) against CLDN6 and CD3 encoded by BNT142; SEQ ID NOs: 4 and 6; C53S”, the “anticipated full clearance from the human body (five half-lives)” value [1] was 135 to 185 h, the “binding to CLDN9” value (CLDN9) was “not to CLDN3, CLDN4 or CLDN9” and the target-independent lysis (MDA-MB-231 cell line) was “did not induce target-independent (non-specific) lysis”. For the same substance, the “binding to CLDN6” value (CLDN6) was “bound specifically”, the “binding to simian CD3” value (simian CD3) was “not simian CD3 was recognized” and the T-cell proliferation (human PBMCs (T cells); PBMCs co-cultured with CLDN6-negative NUGC-4 cells) was “no RiboMab02.1-driven T-cell proliferation”. The T-cell proliferation (human PBMCs (T cells); PBMCs co-cultured with MDA-MB-231 cells) was “no RiboMab02.1-driven T-cell proliferation”, the T-cell proliferation (human PBMCs (T cells); absence of any target cells) was “no RiboMab02.1-driven T-cell proliferation” and the T-cell proliferation (human PBMCs (T cells); with OV-90 cells, 1 ng/mL, 72 h) was 2±3%. The T-cell proliferation (human PBMCs (T cells); with OV-90 cells, 100 ng/mL, 72 h) was 24±3%, the T-cell proliferation (human PBMCs (T cells); with PA-1 cells, 1 ng/mL, 72 h) was ~44±7% and the T-cell proliferation (human PBMCs (T cells); with PA-1 cells, 100 ng/mL, 72 h, E:T 10:1, three donors) was “approximately 58±2%”. For the same substance, the “Effective t1/2 (mean)” value ([2]; 0.050 mg/kg, group, n=2) was 28.1 h, the “Cmax (mean)” value ([2]; 0.050 mg/kg, group, n=3) was 27.5 ng/mL and the “Ctrough (mean)” value ([2]; 0.050 mg/kg, group, n=3) was 3.6 ng/mL. The “tlast (median)” value ([2]; 0.050 mg/kg, group, n=3) was 72 h, the Cmax [2, 3] was 32.8 ng/mL and 19.1 ng/mL and 30.7 ng/mL and the Ctrough [2, 3] was 0.6 ng/mL and 5.6 ng/mL. For the same substance, the tlast [2, 3] was 168 h and 72 h (2×), the “Effective t1/2” value ([2]; 0.050 mg/kg, individual animals, from MRT0-inf) was 28.1 h and the “Effective t1/2 (mean)” value ([2]; […], group, n=1) was 26.5 h. For the same substance, the “Effective t1/2 (mean)” value ([2]; […], group, n=3) was 36.6 h, the “Effective t1/2” value ([2]; […], individual animals, calculated from MRT0-inf) was 26.5 h and the “inter-individual difference in concentration at Cmax” value ([2]; highest dose group) was 2 fold. The “binding to human CD3” value (human CD3) was “recognized”.
